# Reference: the nanobody polyreactivity screen of Harvey et al. (2022)
# Experiment: yeast display, Sf9 membrane polyspecificity reagent, FACS + sequencing; frameworks hold sequencing errors
# Summary of the method: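 Polyreactivity labels are assigned by the sorting gate from which each nanobody was recovered. The gates were low and high (top ~1%), set on anti-HA fluorescence for expression and streptavidin fluorescence for reagent binding. Before sorting, galactose-induced (36–48 hours) yeast display cells were stained for 1 hour at 4 °C with 10% biotinylated, detergent-solubilized Sf9 membrane reagent.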
row,Sequence,polyreactivity (PSR sort gate)
1,QVQPQESGGGLVQAGGSLRLSCAASGTIFAFQTMGWYRQAPGKERELVASITYGSSTNYADSVKGRFTISRDNAKNTVYLQMNSLKPEDTAVYYCAVPQAQYYYDYWGQGTQVTVSS,high polyreactivity
2,QVQPQESGGGQVQAGSCLRLSCTASGYIFLYAYMGRYRQAPGKEREFVATITDGTSTYYADSVKGRFTISRNNAKNIVYLQMNSLKPEDTAVYYCAADAGGGYPGDEDWGQGTQVTVSS,low polyreactivity
3,QVQPVESGGGLDQAGGSLRLSCAASGRILWSYAMGWYRQAPGKERELVAAIRTSGGSTYYADSVKGRFTISRDNAKNTVYLQMNSLKPEDTAVYYCAADRTLFSTVDYWGQGTQVTVSS,low polyreactivity
4,QVQPVESGGGLVQAGGSLRLSCAASGIIFPYYAMGWYRQEPGKERELVAAISTGGSTYYADSVKGRFTISRDNAKNTVYLQMNSLKPEDTAVYCCAAATSYGKSEYDYWGQGTQVTVSS,high polyreactivity
5,QVQQQESGGGLVQAGGSLRLSCAASGTIFQLTVMGRYRQAPGKERQLVASIDYGGNTNYADSVKGRFTISRDNAKNTVYLQMNSLKPEDTAVYYCAASSDSWTTHPYWGQGTQVTVSS,low polyreactivity
6,QVQQQESGGGLVQAGGSLRQSYAASGYIFPSLAMGWYRQAPGKEREFVAAIGRGSTNNYADSVKGRFTISRDNAKNTAYQQMNSLKPEDTAVYYSAAAASPLTRHLYWGQGTQVNVSS,low polyreactivity
7,QVQQVESGGGLVQAGGSLRLSCADSGRTFTLYAMGWYRQAPGKERELVAAITWRGGRTYYADSVKGRFTISRDNAKNTVYFQMNSLKPEVTEVYYCAARKYSPQLDRYGYWGQGTQVTVSS,high polyreactivity
8,QVQQVESGGGLVQAGGSLRLSSAASGITFRYYAMGWYRQAPGKERELVAAISSTGGSSYYADSVKGRFTISRDNAKNTVYLQMNSLKPEDTAVYYCNTQYNSQYDYWGQGTQVTVSS,high polyreactivity
9,QVQQVESGGGLVQAGGSLRLSWAASGRIFVINGMGWYRQAPGKERELVAGISSGGTTYADSVKGRFTISRDNAKNTVYLQMNSLKPEDTEVYYCAARGRYQPQFDYWGQGTQVTVSS,high polyreactivity
10,QVQREESGGGLFQAGGTLRLSCAASGFTFVWYAMGWNRQATGKERELVAAITRSGGSTYYADSVKGRFTISRDNAKNTVYLQMNSLKPEDTAVYYCNVSYGTFPGRALFANNFYYWGQGTQVTVSS,low polyreactivity
11,QVQREESGGGLVQAGGSLRLSCAASGRTFRYYAMGWSRQAPGKERELVAAITSGGGTNYADSVKGRFTISRDNAKNTVYLQMNSLKPEDTAVYYCAADHVYYDYDYWGQGTQVNVSS,low polyreactivity
12,QVQRVASGGGLVQAGGSLRLSWAASGSIVVRYTMGWYRQAPGKERELVAGISSRGGSTYYADSVKGRFTISRDNAKNTVSLQLNSLTPEDTAVYYCAKERSYSRSGGTYYYWGQRTQVTVSS,high polyreactivity
13,QVQRVDSGGGLVQAGGSLRVSCAASGFIFVANAMGGDREAPGKERELVADINRGSTYYADSVKGRFTISRDNAKNTVYLQMNSLKPEDTAVYYCAARHWRRSGIYYYWGQGTQVTVSS,high polyreactivity
14,QVQRVESAGGLVQAGGSLRLSCAASGFILDNYAMGWYRQAPGKERELVAAISGSGGSTYYADSVKGRFTISRDNAKNTVYLQMNSLKPEDTAVYYCNRDRLLRQYDYWGQGTQVTVSS,high polyreactivity
15,QVQRVESAGGLVQAGGSLRLSSAASGFTFRRYAMGWYRQARGKERELVARITWSGTSTDYADSEKGRFTISRDNAKNTVYLQMNSLKPEDTAVYYCAKAYTPWSGRYFAGVGYYYWGQGTQVTVSS,high polyreactivity
16,QVQRVESAGGLVQARGSLRLSCAASGRIFYYNAMGWYRQAPGKEREFVAAITSVGSTNYADSVKGLFTISRDNAKNTVYLQMNSLKPEDTAVYYCARASAWYVTLVGKYTKYDYWGQGTQVTVSS,low polyreactivity
17,QVQRVESGGCLVQAGGSLRLSCAASGYTFGSNAMGWYIQAPGKERELVAAITYGAGRTSYADSVKGRFTISRDNAKNTVYLQMNSLKPEDTAVYYCAAVWGYVIWVDSAVYREYDYWGQGTQVTVSS,high polyreactivity
18,QVQRVESGGGLVQAGCRLRLSCAASGTFFMGWYRQAPWKSRELVAGISISDGSTYYADSVKGRLTISRDNAKNTVYLQMKSLKPEDTAVYYFAAVFNPTTGFDYWGQGTQVTVSS,low polyreactivity
19,QVQRVESGGGLVQAGGILRLSCAASGSTFREYTMGWYRQAPGKEKELVAAITNSGGSTYYADSVKGRFTISRDNEKNTVYLQMNSLKPEDTAVYYCAADVGIVDYDYWGQGTQVTVSS,low polyreactivity
20,QVQRVESGGGLVQAGGRLRLTCAASGSTFYVNAMVWYRQAPGKERELVAGISFSDGSTYYADSVKGRFTISRDNAKNTVYLQMNSLKPEDTAVYYCATVGAFDIYYGYGYWGQGTQVTVSS,low polyreactivity
21,QVQRVESGGGLVQAGGSLLLSCAASGRIFVTYAKGWYRQAPGKERDLVASITGGGSRYYADSVKGRVTISRDKAKTTVYVQMTRLKPEDPAVNYCAAKSRSWYFGYGYWGQGTQVTVSS,high polyreactivity
22,QVQRVESGGGLVQAGGSLLLSCAASGSILYSYPMGWYRQAPGKERELVAAITGDGASTNYADSVKGRFTISRDNAKNTDYLQMNSLKPEDTAVYYCNAGRESDDVYEGSKRIGQFDYWGQGTLVTVSS,low polyreactivity
23,QVQRVESGGGLVQAGGSLRFSCAASGSTFSYYAMGWYSQAPGKERELVAVISRGGSTNYADSVKGRFTISRDNAKNTVYLQMNSLKPEDTAVYYCAAYVLPWRGRGQTEYGYSGQGTQVTVSS,low polyreactivity
24,QVQRVESGGGLVQAGGSLRLSCAASGGIFDRYAMGWYRPAPGKERELVAVISGSVNTYADSVKGRFTISRDNAKNTVYLQMNSLKPEDTAVYYCATQFEGPSGFNYWGQGTQVTVSS,low polyreactivity
25,QVQRVESGGGLVQAGGSLRLSCAASGITFGEYAMGWYSPAPGNERELVAGINWSGDGTYYADSVKGRFTISRDNEKNTVYLQMNSLKPEDTAVYYCAVDPGGGNYIYYYNEYYYWGQGTQVTLSS,low polyreactivity
26,QVQRVESGGGLVQAGGSLRLSCAASGITFGPYAMGWYRQAPGKERELVAAITGSGGITYYADSVKGRFTISRDNAKNTVYLQMNSLKPEDTAVYYCAAEYPYVYGTYSDSYTEYDYWGQGTQLTVSS,low polyreactivity
27,QVQRVESGGGLVQAGGSLRLSCAASGITFSRYAMGWYRPAPGKERELVAAISRSGTRTYYADSVKGRFTISRDNAKNTVYLQMNSLKPEDSAVYYCAAESFASSFDYWGQGTQVTVSS,high polyreactivity
28,QVQRVESGGGLVQAGGSLRLSCAASGITIYHYAMGCYRQAPGKERELVAAISRSGGSTSYADSVKGRFTISRDNAKNTVYLQMNSLKPEDTAVYYFAARLVRESDPLGYWGQGTQVTVSS,high polyreactivity
29,QVQRVESGGGLVQAGGSLRLSCAASGRIFIANAMGWYRQAPGKERELVAAISFSGGSTYYADSVKGRFTISRDHAKTTVYLQMNSLNPEDTAVYYCNALYTSYYRPSGMGYWGQGTQVTVSS,high polyreactivity
30,QVQRVESGGGLVQAGGSLRLSCAASGRIFPTNAMGWYRQAPGKERELVAAIPVSGGSTYYADSVKGRFTISRDNAKNTVYLQMNSLKPEDTAVYYCAADSSTYRFDYWGQGTQVTVSS,low polyreactivity
